T1: mouse B7-H2, full length, expressed on 293T cells (mouse, UniProt Q9JHJ8 44-322)
T1 construct: whole, on cells
T1 sequence (looked up): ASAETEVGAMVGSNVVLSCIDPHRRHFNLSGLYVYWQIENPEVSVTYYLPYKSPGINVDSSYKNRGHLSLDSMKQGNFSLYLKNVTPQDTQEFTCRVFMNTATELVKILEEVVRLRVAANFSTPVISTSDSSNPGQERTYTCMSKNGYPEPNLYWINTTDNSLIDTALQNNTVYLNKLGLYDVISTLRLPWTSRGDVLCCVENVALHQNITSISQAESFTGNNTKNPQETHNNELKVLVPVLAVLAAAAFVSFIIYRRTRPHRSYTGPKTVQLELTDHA

T2: PD-1 (Mus musculus, UniProt Q02242)
T2 sequence (membrane protein, looked up): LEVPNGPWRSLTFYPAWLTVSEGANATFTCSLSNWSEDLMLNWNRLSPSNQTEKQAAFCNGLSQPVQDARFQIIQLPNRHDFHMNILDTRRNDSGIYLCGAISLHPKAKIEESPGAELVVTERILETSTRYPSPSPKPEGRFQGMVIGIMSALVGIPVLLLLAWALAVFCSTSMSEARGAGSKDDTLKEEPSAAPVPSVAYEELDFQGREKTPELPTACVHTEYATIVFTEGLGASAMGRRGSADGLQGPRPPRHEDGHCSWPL

T3: B7-DC (Mus musculus, UniProt Q9WUL5)
T3 sequence (membrane protein, looked up): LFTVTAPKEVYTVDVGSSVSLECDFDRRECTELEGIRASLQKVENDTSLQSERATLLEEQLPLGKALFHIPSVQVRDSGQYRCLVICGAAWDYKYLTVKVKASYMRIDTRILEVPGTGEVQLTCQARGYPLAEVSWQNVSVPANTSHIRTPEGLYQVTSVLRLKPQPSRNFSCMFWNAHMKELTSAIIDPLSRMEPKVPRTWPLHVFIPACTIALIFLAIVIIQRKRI

T4: CD28 (Mus musculus, UniProt P31041)
T4 sequence (membrane protein, looked up): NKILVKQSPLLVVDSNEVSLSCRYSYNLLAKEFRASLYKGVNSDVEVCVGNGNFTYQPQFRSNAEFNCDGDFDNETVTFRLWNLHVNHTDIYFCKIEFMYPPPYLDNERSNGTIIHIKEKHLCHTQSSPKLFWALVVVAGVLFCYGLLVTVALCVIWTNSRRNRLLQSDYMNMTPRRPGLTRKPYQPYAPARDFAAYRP

T5: human B7-1 (CD80) expressed on 293T cells (human, UniProt P33681 35-288)
T5 construct: whole, on cells
T5 sequence (looked up): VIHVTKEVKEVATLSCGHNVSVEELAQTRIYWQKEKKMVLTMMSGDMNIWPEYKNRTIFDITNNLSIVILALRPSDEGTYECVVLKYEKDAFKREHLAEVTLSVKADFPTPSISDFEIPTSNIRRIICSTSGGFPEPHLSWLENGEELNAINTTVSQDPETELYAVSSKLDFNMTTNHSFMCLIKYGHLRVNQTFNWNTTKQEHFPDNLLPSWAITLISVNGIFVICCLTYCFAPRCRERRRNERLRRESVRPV

T6: human B7-DC expressed on 293T cells (human, UniProt Q9BQ51 20-273)
T6 construct: whole, on cells
T6 sequence (looked up): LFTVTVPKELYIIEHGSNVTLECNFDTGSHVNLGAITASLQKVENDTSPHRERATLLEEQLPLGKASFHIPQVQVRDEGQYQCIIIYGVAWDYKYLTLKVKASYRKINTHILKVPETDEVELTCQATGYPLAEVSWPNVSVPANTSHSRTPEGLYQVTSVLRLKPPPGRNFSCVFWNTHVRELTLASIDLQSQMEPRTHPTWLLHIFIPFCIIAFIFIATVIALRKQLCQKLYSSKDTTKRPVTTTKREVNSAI

T7: human B7-2 (CD86, B70) expressed on 293T cells (human, UniProt P42081 24-329)
T7 construct: whole, on cells
T7 sequence (looked up): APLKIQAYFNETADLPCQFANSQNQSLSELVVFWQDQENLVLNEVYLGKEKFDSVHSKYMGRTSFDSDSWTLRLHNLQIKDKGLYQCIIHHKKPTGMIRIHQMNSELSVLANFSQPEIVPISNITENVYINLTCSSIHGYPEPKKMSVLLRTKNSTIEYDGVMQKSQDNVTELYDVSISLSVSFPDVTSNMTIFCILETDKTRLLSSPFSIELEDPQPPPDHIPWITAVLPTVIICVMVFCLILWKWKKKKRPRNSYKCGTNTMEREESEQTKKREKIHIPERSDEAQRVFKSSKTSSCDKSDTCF

T8: human B7-H2, full length, expressed on cells (B7-H2+293T cells) (human, UniProt O75144 19-302)
T8 construct: This id also stands for endogenous B7-H2 on monocyte-derived dendritic cells in the functional rows; also called ICOSL; ICOSLG
T8 sequence: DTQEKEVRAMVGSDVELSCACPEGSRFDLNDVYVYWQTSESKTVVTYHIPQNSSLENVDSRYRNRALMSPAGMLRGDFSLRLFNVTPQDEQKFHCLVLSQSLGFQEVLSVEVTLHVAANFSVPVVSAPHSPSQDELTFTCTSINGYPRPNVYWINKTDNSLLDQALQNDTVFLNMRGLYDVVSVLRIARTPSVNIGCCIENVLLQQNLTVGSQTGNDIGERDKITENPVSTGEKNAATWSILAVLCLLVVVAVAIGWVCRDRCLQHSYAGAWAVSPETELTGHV

B1: B7-DCIg (Fc fusion, Mus musculus, UniProt Q9WUL5 20-219, looked up)
fusion protein: LFTVTAPKEVYTVDVGSSVSLECDFDRRECTELEGIRASLQKVENDTSLQSERATLLEEQLPLGKALFHIPSVQVRDSGQYRCLVICGAAWDYKYLTVKVKASYMRIDTRILEVPGTGEVQLTCQARGYPLAEVSWQNVSVPANTSHIRTPEGLYQVTSVLRLKPQPSRNFSCMFWNAHMKELTSAIIDPLSRMEPKVPR
notes: Ig fusion protein purchased from R&D systems; also called mouse B7-DCIg fusion protein
B2: PD-1Ig (Fc fusion, Mus musculus, UniProt Q02242 25-167, looked up)
fusion protein: LEVPNGPWRSLTFYPAWLTVSEGANATFTCSLSNWSEDLMLNWNRLSPSNQTEKQAAFCNGLSQPVQDARFQIIQLPNRHDFHMNILDTRRNDSGIYLCGAISLHPKAKIEESPGAELVVTERILETSTRYPSPSPKPEGRFQ
notes: Ig fusion protein purchased from R&D systems; also called mouse PD-1Ig fusion protein
B3: ICOSIg (Fc fusion, Mus musculus, UniProt Q9WVS0 21-144, looked up)
fusion protein: EINGSADHRMFSFHNGGVQISCKYPETVQQLKMRLFREREVLCELTKTKGSGNAVSIKNPMLCLYHLSNNSVSFFLNNPDSSQGSYYFCSLSIFDPPPFQERNLSGGYLHIYESQLCCQLKLWL
notes: Ig fusion protein purchased from R&D systems; also called mouse ICOSIg fusion protein
B4: human B7-1Ig fusion protein (Fc fusion, UniProt P33681 35-242, looked up)
chain: VIHVTKEVKEVATLSCGHNVSVEELAQTRIYWQKEKKMVLTMMSGDMNIWPEYKNRTIFDITNNLSIVILALRPSDEGTYECVVLKYEKDAFKREHLAEVTLSVKADFPTPSISDFEIPTSNIRRIICSTSGGFPEPHLSWLENGEELNAINTTVSQDPETELYAVSSKLDFNMTTNHSFMCLIKYGHLRVNQTFNWNTTKQEHFPDN
notes: Bought from R&D Systems; Ig (Fc) part not given
B5: ICOS (receptor, Mus musculus, UniProt Q9WVS0 21-200, looked up)
membrane protein: EINGSADHRMFSFHNGGVQISCKYPETVQQLKMRLFREREVLCELTKTKGSGNAVSIKNPMLCLYHLSNNSVSFFLNNPDSSQGSYYFCSLSIFDPPPFQERNLSGGYLHIYESQLCCQLKLWLPVGCAAFVVVLLFGCILIIWFSKKKYGSSVHDPNSEYMFMAAVNTNKKSRLAGVTS
B6: human B7-H2Ig fusion protein (Fc fusion)
chain: DTQEKEVRAMVGSDVELSCACPEGSRFDLNDVYVYWQTSESKTVVTYHIPQNSSLENVDSRYRNRALMSPAGMLRGDFSLRLFNVTPQDEQKFHCLVLSQSLGFQEVLSVEVTLHVAANFSVPVVSAPHSPSQDELTFTCTSINGYPRPNVYWINKTDNSLLDQALQNDTVFLNMRGLYDVVSVLRIARTPSVNIGCCIENVLLQQNLTVGSQTGNDIGERDKITENPVSTGEKNAATWS
notes: Ig (Fc) part not given
B7: B7-H2Ig (Fc fusion, Mus musculus, UniProt Q9JHJ8 47-279, looked up)
fusion protein: ETEVGAMVGSNVVLSCIDPHRRHFNLSGLYVYWQIENPEVSVTYYLPYKSPGINVDSSYKNRGHLSLDSMKQGNFSLYLKNVTPQDTQEFTCRVFMNTATELVKILEEVVRLRVAANFSTPVISTSDSSNPGQERTYTCMSKNGYPEPNLYWINTTDNSLIDTALQNNTVYLNKLGLYDVISTLRLPWTSRGDVLCCVENVALHQNITSISQAESFTGNNTKNPQETHNNELK
notes: Ig fusion protein purchased from R&D systems; also called mouse B7-H2Ig fusion protein

Legend:
[1] = molecular target: B7-H1 (Mus musculus, UniProt Q9EP73); assay: CDS well image, 293T cells transfected with the mouse gene, stained with the mouse fusion protein
Chain of B7-H1 (Q9EP73 19-290 limits assumed): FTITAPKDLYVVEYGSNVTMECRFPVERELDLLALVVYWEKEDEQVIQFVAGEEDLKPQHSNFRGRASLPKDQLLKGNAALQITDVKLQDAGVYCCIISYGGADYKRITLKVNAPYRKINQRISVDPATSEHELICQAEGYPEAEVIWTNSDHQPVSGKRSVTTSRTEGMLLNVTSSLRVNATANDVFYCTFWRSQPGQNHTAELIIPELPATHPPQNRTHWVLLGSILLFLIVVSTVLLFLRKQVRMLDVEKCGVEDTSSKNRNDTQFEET

[2] = molecular target: T1, mouse B7-H2, full length, expressed on …; assay: as above
[3] = molecular target: T2, PD-1; assay: as above
[4] = molecular target: T3, B7-DC; assay: as above
[5] = molecular target: CTLA-4 (Mus musculus, UniProt P09793); assay: as above
[6] = molecular target: T4, CD28; assay: as above
[7] = molecular target: B5; assay: as above
[8] = molecular target: T5, human B7-1 (CD80) expressed on 293T …; assay: CDS well image, 293T cells transfected with the human gene, stained with the human fusion protein
[9] = molecular target: T6, human B7-DC expressed on 293T cells; assay: as above
[10] = molecular target: T7, human B7-2 (CD86, B70) expressed on …; assay: as above
[11] = molecular target: T8, human B7-H2, full length, expressed on …; assay: as above
[12] = molecular target: T9, B7-H1Ig (Mus musculus, UniProt Q9EP73); assay: CDS well image, 293T cells transfected with the mouse gene, stained with the mouse fusion protein
T9 construct: Ig fusion protein purchased from R&D systems; also called mouse B7-H1Ig fusion protein
T9 sequence (Q9EP73 19-238 limits assumed): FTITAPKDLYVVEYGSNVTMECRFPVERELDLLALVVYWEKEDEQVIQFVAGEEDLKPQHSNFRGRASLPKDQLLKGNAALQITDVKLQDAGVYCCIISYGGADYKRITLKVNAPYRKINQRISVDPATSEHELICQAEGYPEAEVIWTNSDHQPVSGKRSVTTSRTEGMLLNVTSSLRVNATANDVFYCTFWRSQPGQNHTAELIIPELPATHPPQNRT

[13] = molecular target: B1; assay: as above
[14] = molecular target: T10, human B7-H1 expressed on 293T cells (human, UniProt Q9NZQ7 19-290); assay: CDS well image, 293T cells transfected with the human gene, stained with the human fusion protein
T10 construct: whole, on cells
T10 sequence (Q9NZQ7 19-290): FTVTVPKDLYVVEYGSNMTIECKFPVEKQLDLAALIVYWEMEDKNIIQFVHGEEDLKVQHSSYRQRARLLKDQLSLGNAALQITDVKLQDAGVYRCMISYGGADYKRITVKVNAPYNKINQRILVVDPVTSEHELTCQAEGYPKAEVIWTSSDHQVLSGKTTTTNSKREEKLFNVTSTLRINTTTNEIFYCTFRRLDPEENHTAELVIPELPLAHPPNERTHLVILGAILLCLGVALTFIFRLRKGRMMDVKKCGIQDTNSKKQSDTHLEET

B1: no binding [1]; no binding [2]; binds [3]. B1: no binding [4].

B2: binds [1]; no binding [5]; no binding [2]. B2: no binding [3]; no binding [6]; no binding [7]. B2: binds [4].

B3: no binding [1]; no binding [5]; binds [2]. B3: no binding [3]; no binding [6]; no binding [7]. B3: no binding [4].

B4: no binding [8]; no binding [9]; no binding [10]. B4: no binding [11].

B5: no binding [12]; no binding [13].

B6: no binding [8]; no binding [14]; no binding [9]. B6: no binding [10]; no binding [11].

B7: no binding [1]; no binding [2]; no binding [3].
